“Also recorded” adds a separate entry of the source.

Series [1] deals with S5a. The series can be described thus: ubiquitination assay of E3 ligases using S5a as the substrate. It counts as biochemical. As to conditions: 0.2 mg/mL E3, 200 nM S5a, 1 hour at 37° C., Western blot. The method, then: For each E3 ligase, a ubiquitination assay using S5a as the substrate was carried out. Briefly, the ubiquitination reaction contained 50 nM E1, 1 mM MgATP, 5 μM UbcH7, 0.2 mg/mL E3, 200 nM ubiquitin, and 200 nM S5a. Ubiquitination reactions were incubated for 1 hour at 37° C. and samples were taken at time 0, 30′ and 60′. Samples were run on SDS-PAGE, transferred to immobilon and Western blotted using monoclonal antibody to S5a (BioMol).

Series [2] deals with S5a. The series can be described thus: thermal denaturation of E3 ligases (S5a ubiquitination after pre-incubation). To be noted: for Thermal Denaturation Temperature (temperature at which approximately 50% of activity was lost): E3 pre-incubated 90 minutes at 4° C. to 60° C., then S5a ubiquitination 60 minutes at 37° C. It is filed as biochemical. The protocol: To characterize the thermal denaturation properties E3 ligases, the E3 was pre-incubated for 90 minutes at a temperature ranging from 4° C. to 60° C. (Mdm2 and Nedd4 at 4, 37, 45, 50 and 60° C.; Murf1 at 4, 37, 50, 60, 70 and 80° C.; E6AP at 37, 39, 41, 43, and 45° C. At 90 minutes, a pre-mix was made containing 50 nM E1, 1 mM Mg-ATP, 5 μM UbcH7 (UbcH5a for Mdm2 and Murf1), 200 nM ubiquitin and 200 nM S5a. The pre-mix was added to 0.2 mg/mL of E3 ligase and incubated at 37° C. for 60 minutes. Samples were run on SDS-PAGE and assessed by Western blotting using monoclonal antibody to S5a (BioMol).

As to “GST-E6AP: GST fusion of Human papillomavirus E6-associated protein, HECT E3 ligase”, the “Ubiquitinated S5a?” value in the series with S5a [1] is recorded as “Yes”. Besides, the “Thermal Denaturation Temperature (temperature at which approximately 50% of activity was lost)” value in the series on S5a [2] and in the series with S5a [2] (listed as E6AP) was 41 °C in each case.

B1: GST-Siah2: GST fusion of Seven in absentia homolog 2, RING E3 ligase (protein)
chain: MSRPSSTGPSANKPCSKQPPPQPQHTPSPAAPPAAATISAAGPGSSAVPAAAAVISGPGGGGGAGPVSPQHHELTSLFECPVCFDYVLPPILQCQAGHLVCNQCRQKLSCCPTCRGALTPSIRNLAMEKVASAVLFPCKYATTGCSLTLHHTEKPEHEDICEYRPYSCPCPGASCKWQGSLEAVMSHLMHAHKSITTLQGEDIVFLATDINLPGAVDWVMMQSCFGHHFMLVLEKQEKYEGHQQFFAIVLLIGTRKQAENFAYRLELNGNRRRLTWEATPRSIHDGVAAAIMNSDCLVFDTAIAHLFADNGNLGINVTISTCCP
modifications: left off: a dimerising Fc or GST
notes: GST fusion of Seven in absentia homolog 2, RING E3 ligase
Regarding B1, the figures for the “Ubiquitinated S5a?” value with S5a [1] and with S5a [1] (listed as Siah2) were “Yes (low)” and “very low activity”, respectively.

B2: GST-parkin: GST fusion of parkin, RING class E3 ligase (protein)
chain: MIVFVRFNSSHGFPVEVDSDTSIFQLKEVVAKRQGVPADQLRVIFAGKELRNDWTVQNCDLDQQSIVHIVQRPWRKGQEMNATGGDDPRNAAGGCEREPQSLTRVDLSSSVLPGDSVGLAVILHTDSRKDSPPAGSPAGRSIYNSFYVYCKGPCQRVQPGKLRVQCSTCRQATLTLTQGPSCWDDVLIPNRMSGECQSPHCPGTSAEFFFKCGAHPTSDKETSVALHLIATNSRNITCITCTDVRSPVLVFQCNSRHVICLDCFHLYCVTRLNDRQFVHDPQLGYSLPCVAGCPNSLIKELHHFRILGEEQYNRYQQYGAEECVLQMGGVLCPRPGCGAGLLPEPDQRKVTCEGGNGLGCGFAFCRECKEAYHEGECSAVFEASGTTTQAYRVDERAAEQARWEAASKETIKKTTKPCPRCHVPVEKNGGCMHMKCPQPQCRLEWCWNCGCEWNRVCMGDHWFDV
modifications: left off: a dimerising Fc or GST
notes: GST fusion of parkin, RING class E3 ligase
Turning to B2, the “Ubiquitinated S5a?” value in the series on S5a [1] is “Yes”. In the series with S5a [2], the “Thermal Denaturation Temperature (temperature at which approximately 50% of activity was lost)” value is 49 °C.

B3: GST-Nedd4: GST fusion of Nedd4, HECT E3 ligase (protein)
chain: MATCAVEVFGLLEDEENSRIVRVRVIAGIGLAKKDILGASDPYVRVTLYDPMNGVLTSVQTKTIKKSLNPKWNEEILFRVHPQQHRLLFEVFDENRLTRDDFLGQVDVPLYPLPTENPRLERPYTFKDFVLHPRSHKSRVKGYLRLKMTYLPKTSGSEDDNAEQAEELEPGWVVLDQPDAACHLQQQQEPSPLPPGWEERQDILGRTYYVNHESRRTQWKRPTPQDNLTDAENGNIQLQAQRAFTTRRQISEETESVDNRESSENWEIIREDEATMYSNQAFPSPPPSSNLDVPTHLAEELNARLTIFGNSAVSQPASSSNHSSRRGSLQAYTFEEQPTLPVLLPTSSGLPPGWEEKQDERGRSYYVDHNSRTTTWTKPTVQATVETSQLTSSQSSAGPQSQASTSDSGQQVTQPSEIEQGFLPKGWEVRHAPNGRPFFIDHNTKTTTWEDPRLKIPAHLRGKTSLDTSNDLGPLPPGWEERTHTDGRIFYINHNIKRTQWEDPRLENVAITGPAVPYSRDYKRKYEFFRRKLKKQNDIPNKFEMKLRRATVLEDSYRRIMGVKRADFLKARLWIEFDGEKGLDYGGVAREWFFLISKEMFNPYYGLFEYSATDNYTLQINPNSGLCNEDHLSYFKFIGRVAGMAVYHGKLLDGFFIRPFYKMMLHKPITLHDMESVDSEYYNSLRWILENDPTELDLRFIIDEELFGQTHQHELKNGGSEIVVTNKNKKEYIYLVIQWRFVNRIQKQMAAFKEGFFELIPQDLIKIFDENELELLMCGLGDVDVNDWREHTKYKNGYSANHQVIQWFWKAVLMMDSEKRIRLLQFVTGTSRVPMNGFAELYGSNGPQSFTVEQWGTPEKLPRAHTCFNRLDLPPYESFEELWDKLQMAIENTQGFDGVD
modifications: left off: a dimerising Fc or GST
notes: GST fusion of Nedd4, HECT E3 ligase
As to B3, the “Ubiquitinated S5a?” value in the series with S5a [1] is “Yes”. Further, the “S5a ubiquitination activity after thermal pre-incubation” value in the series on S5a [2] (E3 pre-incubated 90 minutes at 4, 37, 45, 50 and 60° C.) is “did not show any activity when pre-incubated at temperatures higher than 4 °C; also recorded: lose activity following pre-incubation at any temperature except 4 °C”. The “Thermal Denaturation Temperature (temperature at which approximately 50% of activity was lost)” value in the series with S5a [2] is 37 °C.

B4: GST-Murf1: GST fusion of Muscle-specific RING finger protein 1, RING E3 ligase (protein)
chain: MDYKSSLIQDGNPMENLEKQLICPICLEMFTKPVVILPCQHNLCRKCANDIFQAANPYWTSRGSSVSMSGGRFRCPTCRHEVIMDRHGVYGLQRNLLVENIIDIYKQECSSRPLQKGSHPMCKEHEDEKINIYCLTCEVPTCSMCKVFGIHKACEVAPLQSVFQGQKTELNNCISMLVAGNDRVQTIITQLEDSRRVTKENSHQVKEELSQKFDTLYAILDEKKSELLQRITQEQEKKLSFIEALIQQYQEQLDKSTKLVETAIQSLDEPGGATFLLTAKQLIKSIVEASKGCQLGKTEQGFENMDFFTLDLEHIADALRAIDFGTDEEEEEFIEEEDQEEEESTEGKEEGHQ
modifications: left off: a dimerising Fc or GST
notes: GST fusion of Muscle-specific RING finger protein 1, RING E3 ligase
For the molecule B4, the “Ubiquitinated S5a?” value in the series on S5a [1] is “Yes”. Moreover, the “Thermal Denaturation Temperature (temperature at which approximately 50% of activity was lost)” value with S5a [2] and with S5a [2] (listed as Murf1) was 60 °C each time.

B5: His-CHIP: His-tagged carboxyl terminus of Hsp70-interacting protein, U-box E3 ligase (protein)
chain: MKGKEEKEGGARLGAGGGSPEKSPSAQELKEQGNRLFVGRKYPEAAACYGRAITRNPLVAVYYTNRALCYLKMQQHEQALADCRRALELDGQSVKAHFFLGQCQLEMESYDEAIANLQRAYSLAKEQRLNFGDDIPSALRIAKKKRWNSIEERRIHQESELHSYLSRLIAAERERELEECQRNHEGDEDDSHVRAQQACIEAKHDKYMADMDELFSQVDEKRKKRDIPDYLCGKISFELMREPCITPSGITYDRKDIEEHLQRVGHFDPVTRSPLTQEQLIPNLAMKEVIDAFISENGWVEDY
modifications: left off: small tags and cut ends
With B5, the “Ubiquitinated S5a?” value in the series on S5a [1] is on record as “Yes”; in the series with S5a [1] (listed as CHIP) it was “reasonable activity”.

(Values after patent US7790365B2, “Assays for modulators of parkin activity using S5a as a parkin substrate” (Elan Pharma International Limited, priority 2007, dated 2010).)
